Results as given in paper PMC314469, “Protein Interaction Networks by Proteome Peptide Scanning” (PLoS Biology, 2004).

T1: Boi2 SH3 (BOI2_YEAST), P39969
T1 chain: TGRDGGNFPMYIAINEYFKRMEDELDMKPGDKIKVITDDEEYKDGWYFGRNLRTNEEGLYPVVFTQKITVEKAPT

T2: Yfr024 SH3 (LSB3_YEAST), P43603
T2 chain: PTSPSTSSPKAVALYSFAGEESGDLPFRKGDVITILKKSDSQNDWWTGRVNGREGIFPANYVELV

T3: Rvs167 SH3 (RV167_YEAST), P39743
T3 chain: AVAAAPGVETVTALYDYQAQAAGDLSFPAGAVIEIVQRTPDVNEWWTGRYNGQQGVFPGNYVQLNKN

T4: Boi1 SH3 (BOI1_YEAST), P38041
T4 chain: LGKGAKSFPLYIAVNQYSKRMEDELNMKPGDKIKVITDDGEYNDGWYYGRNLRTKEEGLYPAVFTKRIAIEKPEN

T5: Yhr016c SH3 (YSC84_YEAST), P32793
T5 chain: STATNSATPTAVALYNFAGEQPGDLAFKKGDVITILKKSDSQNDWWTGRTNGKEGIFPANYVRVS


How the values were obtained:
Test in all cases: SPOT array
[1] = molecular target: T1, Boi2 SH3 (BOI2_YEAST), P39969
[2] = molecular target: T2, Yfr024 SH3 (LSB3_YEAST), P43603
[3] = molecular target: T3, Rvs167 SH3 (RV167_YEAST), P39743
[4] = molecular target: T4, Boi1 SH3 (BOI1_YEAST), P38041
[5] = molecular target: T5, Yhr016c SH3 (YSC84_YEAST), P32793

Binder	normalised SPOT signal, Boehringer light units (BLU); mean over the file's lines of this peptide [1]	normalised SPOT signal, Boehringer light units (BLU); mean over the file's lines of this peptide [2]	normalised SPOT signal, Boehringer light units (BLU); mean over the file's lines of this peptide [3]	normalised SPOT signal, Boehringer light units (BLU); mean over the file's lines of this peptide [4]	normalised SPOT signal, Boehringer light units (BLU); mean over the file's lines of this peptide [5]
GKVPVQPRKRKSIT [YKL062W 547-560]	85.3	1430	73	242	296
GLEPNTPLKSIKVD [YGL009C 340-353]	58.9	68.2	59.1	55.1	47.7
GNIPVFPAKFGIQF [YAL010C 476-489]	59.2	1730	50.1	46.1	212
GNTPDAPKRGFLGY [YDL245C 44-57]	27.7	658	37.1	86.5	230
GNVPHSPVRFADTV [YJR025C 93-106]	29.6	0.8	36.2	115	49
GPAPPPPPRASRPT [YOR181W 384-397]	55.8	6370	3120	10300	2360
GPPPAMPARPTATT [YBL007C 192-205]	140	11500	83.3	86.8	1070
GRHPDMPTRVKNAY [YDR188W 219-232]	44.5	768	148	104	152
GRIPQLPNRDEMTA [YCR073C 1268-1281]	54.1	11500	11900	78.4	20900
GRKPKDPSKPRQML [YML065W 331-344]	42.2	268	31.8	147	160
GSEPIDPSKLEFAR [YLR191W 299-312]	25.3	53.6	33	57.5	37.9
GSNPDLPNKSNLKF [YGR080W 307-320]	38.5	637	26.2	163	180
GSSPVSPDKRPSWK [YGL156W 66-79]	18.6	223	50.3	69.6	493
GTPPTTPLRTAQGI [YOR025W 379-392]	36	5740	197	97.3	2770
GVFPNSPVKQTTII [YPL023C 580-593]	97.9	269	4	64.4	116
GVPPNFPQRMMPPP [YKL204W 471-484]	84.6	1870	58.8	58.2	283
GVYPSRPEKTYDYS [YBR026C 71-84]	47.3	470	12.9	111	113
GWKPLRPIKLISWD [YJR126C 478-491]	236	12000	286	59.3	407
GYDPTDPNRPKVTK [YER166W 1426-1439]	52.4	54.7	35.5	108	69.3
GYDPTDPSRPRINE [YDR093W 1469-1482]	34.7	-0	71.5	98.5	257
HEHPSGPLKKLFSD [YIL002C 144-157]	-0	167	13.3	1.6	-0
HGLPYKPSKLIRIF [YLR224W 329-342]	60.3	747	67.7	80.3	222
